Our source for the percent reduction of co-precipitation against Flag-CLIC4 wild type values is publication PMC6706427.

This test deals with Flag-CLIC4-Y104A (dog). The test is described as follows: co-IP; lysates of co-transfected 293T cells in RIPA buffer plus 0.5% CHAPS; anti-Flag or control antibody; Protein-G Dynabeads; 4 °C overnight; 4 washes; blots quantified with the Odyssey system, three independent repeats.

“mCherry-Tsg101 (from UniProt Q99816 1-390) (natural protein)”: the percent reduction of co-precipitation against Flag-CLIC4 wild type is 40.4 % reduced.
